Source: patent US20030119102A1

Target: T1, rat Kv4.2 α-subunit (rat) (UniProt Q63881)
T1 sequence (looked up): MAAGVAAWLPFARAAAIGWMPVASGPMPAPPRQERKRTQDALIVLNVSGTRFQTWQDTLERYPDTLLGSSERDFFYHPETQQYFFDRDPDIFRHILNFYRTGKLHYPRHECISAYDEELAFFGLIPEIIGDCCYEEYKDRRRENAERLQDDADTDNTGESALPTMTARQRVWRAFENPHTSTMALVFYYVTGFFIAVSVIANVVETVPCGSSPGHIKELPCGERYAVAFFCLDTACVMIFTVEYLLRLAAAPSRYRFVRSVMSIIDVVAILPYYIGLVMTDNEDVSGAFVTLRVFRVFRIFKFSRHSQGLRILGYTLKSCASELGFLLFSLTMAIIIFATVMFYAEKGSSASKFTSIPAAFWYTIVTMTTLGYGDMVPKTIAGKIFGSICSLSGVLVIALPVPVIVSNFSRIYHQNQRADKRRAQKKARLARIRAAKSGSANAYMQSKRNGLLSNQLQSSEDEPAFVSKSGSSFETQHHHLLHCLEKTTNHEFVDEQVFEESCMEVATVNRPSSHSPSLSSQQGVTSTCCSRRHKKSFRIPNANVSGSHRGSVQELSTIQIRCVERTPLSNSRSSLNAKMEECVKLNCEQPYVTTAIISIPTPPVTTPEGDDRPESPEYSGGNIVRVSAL
Assay: cell-based or functional assay

Inactivation time constant (ms, at 50 mV), CHO cells (rKv4.2 + vector: 28.2): 110 ms
Peak Current (nA/cell at 50 mV), CHO cells, patch clamp (rKv4.2 + vector: 0.60): 5.8 nA/cell
Peak Current Density (pA/pF at 50 mV), CHO cells (rKv4.2 + vector: 25.5): 203 pA/pF
Recovery from Inactivation Time constant, CHO cells (rKv4.2 + vector: 272.2): 36.1 ms
Substance: KChIP2ΔN2-67
